Results reported in patent US20230279151A1 (Sanofi, published 2023).

Key:
[1] = target: T1, human IL4 (IL004, Millipore) (human, UniProt P05112 25-153); experiment: SPR, Biacore 3000, antibody captured by anti-human Fc, IL4 as analyte; HEK293-FS expression, processed in vivo
T1 construct: Commercial recombinant antigen; also called Antigen IL4
T1 sequence (looked up): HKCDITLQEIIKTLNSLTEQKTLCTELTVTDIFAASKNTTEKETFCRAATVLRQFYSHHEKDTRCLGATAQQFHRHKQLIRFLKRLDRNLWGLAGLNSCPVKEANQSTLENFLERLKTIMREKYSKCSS
Protocol: (§1) Binding of antigens to the antibody constructs was measured using surface plasmon resonance (SPR) with a BlAcore 3000 instrument (GE Healthcare) with HBS-EP buffer (GE Healthcare). As antigens, human IL4 (IL004, Millipore) and human IL13 (IL012, Millipore) were used. The antihuman Fc capture antibody (human antibody capture kit, GE Life Sciences) was immobilized via primary amine groups (11000 RU) on a research grade CM5 chip (GE Life Sciences) using standard procedures. […] The tested antibody constructs were […] and injected at 100 nM concentration for 240 sec with a dissociation time of 300 sec at a flow rate of 30 µL/min. For human IL4 and IL13, a dilution series of 0.1 nM to 3 nM and 0.8 nM to 25 nM, respectively were used. Chip surfaces were regenerated with 2 min injects of the regeneration buffer provided with the capture kit. Sensorgrams were double-referenced with a blank chip surface and HBS-EP buffer blanks. Data analysis was performed using the BIAevaluation software v4.1.
(§2) The binding of the different bispecific Tandem-IgG constructs expressed in HEK293-FS or ExpiCHO cells as well as in vivo processed Tandem-IgG from the co-transfection with Furin variants was measured via surface plasmon resonance (SPR). The binding to the two human antigens IL4 and IL13 were compared to the binding characteristics of the individual monoclonal antibodies. […] In contrast, specific binding to IL13 was only detectable for in vivo processed Tandem-IgGs as well as the Tandem-lgG control comprising two LCs. […] Thus, processing of the linker sequence connecting the VLb (VL against IL13) at the inner position of the Tandem-lgG with the CK domain of the IL4 binding Fab at the outer position is required for a functional IL13 binding site. In vivo processing can thereby be mediated via endogenously expressed proteases or via co-transfected Furin variants.

[2] = target: T1, human IL4 (IL004, Millipore); experiment: SPR, Biacore 3000, antibody captured by anti-human Fc, IL4 as analyte; second block of the table (presumably ExpiCHO expression), processed in vivo
Protocol: as §1, §2

[3] = target: T1, human IL4 (IL004, Millipore); experiment: SPR, Biacore 3000, antibody captured by anti-human Fc, IL4 as analyte; HEK293-FS, co-expressed with hFurin-KDEL (SEQ ID NO 38)
Protocol: as §1, §2

[4] = target: T1, human IL4 (IL004, Millipore); experiment: SPR, Biacore 3000, antibody captured by anti-human Fc, IL4 as analyte; HEK293-FS, co-expressed with hFurin (SEQ ID NO 37)
Protocol: as §1, §2

[5] = target: T1, human IL4 (IL004, Millipore); experiment: SPR, Biacore 3000, antibody captured by anti-human Fc, IL4 as analyte; HEK293-FS expression
Protocol: as §1, §2

B1: sLC-Tandem-(anti-IL4xanti-IL13)-PCL2-huIgG1 (bispecific antibody)
light: DIQMTQSPASLSVSVGDTITLTCHASQNIDVWLSWFQQKPGNIPKLLIYKASNLHTGVPSRFSGSGSGTGFTLTISSLQPEDIATYYCQQAHSYPFTFGGGTKLEIKRTVAAPSVFIFPPSDEQLKSGTASVVCLLNNFYPREAKVQWKVDNALQSGNSQESVTEQDSKDSTYSLSSTLTLSKADYEKHKVYACEVTHQGLSSPVTKSFNRGECHRRRKR
chain: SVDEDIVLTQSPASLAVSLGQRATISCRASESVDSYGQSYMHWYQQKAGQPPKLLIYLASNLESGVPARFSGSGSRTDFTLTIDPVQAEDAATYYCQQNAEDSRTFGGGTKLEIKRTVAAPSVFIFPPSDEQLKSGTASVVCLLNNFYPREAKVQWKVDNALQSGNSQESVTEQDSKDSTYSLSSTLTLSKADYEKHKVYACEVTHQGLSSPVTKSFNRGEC
heavy: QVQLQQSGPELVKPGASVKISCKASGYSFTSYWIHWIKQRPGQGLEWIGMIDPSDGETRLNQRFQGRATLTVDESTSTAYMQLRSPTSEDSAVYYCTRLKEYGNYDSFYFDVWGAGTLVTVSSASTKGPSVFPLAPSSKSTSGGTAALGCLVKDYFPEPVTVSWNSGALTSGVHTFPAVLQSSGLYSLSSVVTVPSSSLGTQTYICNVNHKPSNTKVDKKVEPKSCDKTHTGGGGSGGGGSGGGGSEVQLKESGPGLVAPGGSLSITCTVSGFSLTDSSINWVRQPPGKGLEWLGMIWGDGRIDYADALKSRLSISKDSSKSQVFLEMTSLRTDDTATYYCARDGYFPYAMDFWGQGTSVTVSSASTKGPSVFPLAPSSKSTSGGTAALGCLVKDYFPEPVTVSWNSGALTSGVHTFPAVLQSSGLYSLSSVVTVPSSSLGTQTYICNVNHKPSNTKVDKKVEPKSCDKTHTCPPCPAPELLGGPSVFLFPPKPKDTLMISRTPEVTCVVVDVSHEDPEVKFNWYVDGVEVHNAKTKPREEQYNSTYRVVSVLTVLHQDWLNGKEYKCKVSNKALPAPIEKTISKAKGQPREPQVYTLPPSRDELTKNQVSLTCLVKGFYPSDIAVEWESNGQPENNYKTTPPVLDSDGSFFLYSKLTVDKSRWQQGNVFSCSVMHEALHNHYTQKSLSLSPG
notes: also called sLC-PCL2-Tandem-IgG; sLC Tandem-IgG-PCL2
B1 was tested, and the Kd [1] was 1.05 pM, the koff [1] was 0.000189 s⁻¹ and the kon [1] was 1.79e+08 M⁻¹ s⁻¹. For the same binder, the Kd [2] was 1.33 pM, the koff [2] was 0.000249 s⁻¹ and the kon [2] was 1.87e+08 M⁻¹ s⁻¹.

B2: sLC-Tandem-(anti-IL4xanti-IL13)-His8-PCL1-huIgG1 (bispecific antibody)
light: DIQMTQSPASLSVSVGDTITLTCHASQNIDVWLSWFQQKPGNIPKLLIYKASNLHTGVPSRFSGSGSGTGFTLTISSLQPEDIATYYCQQAHSYPFTFGGGTKLEIKRTVAAPSVFIFPPSDEQLKSGTASVVCLLNNFYPREAKVQWKVDNALQSGNSQESVTEQDSKDSTYSLSSTLTLSKADYEKHKVYACEVTHQGLSSPVTKSFNRGECRRKR
chain: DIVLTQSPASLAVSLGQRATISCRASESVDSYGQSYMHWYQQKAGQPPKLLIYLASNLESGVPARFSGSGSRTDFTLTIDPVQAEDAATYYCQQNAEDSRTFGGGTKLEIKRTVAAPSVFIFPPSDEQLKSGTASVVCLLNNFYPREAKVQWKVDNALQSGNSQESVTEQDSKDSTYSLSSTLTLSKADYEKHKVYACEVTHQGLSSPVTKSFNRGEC
heavy: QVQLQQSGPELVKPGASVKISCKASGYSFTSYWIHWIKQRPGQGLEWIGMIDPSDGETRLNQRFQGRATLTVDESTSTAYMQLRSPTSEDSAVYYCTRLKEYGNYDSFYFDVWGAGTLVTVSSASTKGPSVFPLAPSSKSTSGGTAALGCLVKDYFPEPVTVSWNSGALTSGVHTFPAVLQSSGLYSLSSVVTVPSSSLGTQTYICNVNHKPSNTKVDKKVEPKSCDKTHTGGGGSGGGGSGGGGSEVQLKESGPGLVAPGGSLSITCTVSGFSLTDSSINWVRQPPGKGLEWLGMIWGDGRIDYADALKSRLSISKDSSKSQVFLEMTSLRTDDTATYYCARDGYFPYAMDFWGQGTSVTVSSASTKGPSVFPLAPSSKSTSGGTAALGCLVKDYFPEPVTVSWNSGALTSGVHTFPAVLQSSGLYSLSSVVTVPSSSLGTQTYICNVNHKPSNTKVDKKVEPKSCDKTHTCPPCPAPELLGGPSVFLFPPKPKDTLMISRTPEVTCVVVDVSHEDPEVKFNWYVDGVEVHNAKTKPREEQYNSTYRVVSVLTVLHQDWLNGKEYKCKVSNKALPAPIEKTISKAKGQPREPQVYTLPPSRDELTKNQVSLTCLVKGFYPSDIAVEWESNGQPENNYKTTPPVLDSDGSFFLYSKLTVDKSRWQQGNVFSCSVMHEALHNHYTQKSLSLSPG
notes: In both the single light chain was processed in vivo; also called 17, 13 with 37; 17, 13 with 38
Work on B2 yielded a Kd [3] of 1.86 pM, a koff [3] of 0.000299 s⁻¹ and a kon [3] of 1.61e+08 M⁻¹ s⁻¹. It also gave a Kd [4] of 1.53 pM, a koff [4] of 0.000211 s⁻¹ and a kon [4] of 1.38e+08 M⁻¹ s⁻¹.

B3: Tandem-(anti-IL4xanti-IL13)-huIgG1 (bispecific antibody)
light 1: DIQMTQSPASLSVSVGDTITLTCHASQNIDVWLSWFQQKPGNIPKLLIYKASNLHTGVPSRFSGSGSGTGFTLTISSLQPEDIATYYCQQAHSYPFTFGGGTKLEIKRTVAAPSVFIFPPSDEQLKSGTASVVCLLNNFYPREAKVQWKVDNALQSGNSQESVTEQDSKDSTYSLSSTLTLSKADYEKHKVYACEVTHQGLSSPVTKSFNRGEC
light 2: not shown
heavy: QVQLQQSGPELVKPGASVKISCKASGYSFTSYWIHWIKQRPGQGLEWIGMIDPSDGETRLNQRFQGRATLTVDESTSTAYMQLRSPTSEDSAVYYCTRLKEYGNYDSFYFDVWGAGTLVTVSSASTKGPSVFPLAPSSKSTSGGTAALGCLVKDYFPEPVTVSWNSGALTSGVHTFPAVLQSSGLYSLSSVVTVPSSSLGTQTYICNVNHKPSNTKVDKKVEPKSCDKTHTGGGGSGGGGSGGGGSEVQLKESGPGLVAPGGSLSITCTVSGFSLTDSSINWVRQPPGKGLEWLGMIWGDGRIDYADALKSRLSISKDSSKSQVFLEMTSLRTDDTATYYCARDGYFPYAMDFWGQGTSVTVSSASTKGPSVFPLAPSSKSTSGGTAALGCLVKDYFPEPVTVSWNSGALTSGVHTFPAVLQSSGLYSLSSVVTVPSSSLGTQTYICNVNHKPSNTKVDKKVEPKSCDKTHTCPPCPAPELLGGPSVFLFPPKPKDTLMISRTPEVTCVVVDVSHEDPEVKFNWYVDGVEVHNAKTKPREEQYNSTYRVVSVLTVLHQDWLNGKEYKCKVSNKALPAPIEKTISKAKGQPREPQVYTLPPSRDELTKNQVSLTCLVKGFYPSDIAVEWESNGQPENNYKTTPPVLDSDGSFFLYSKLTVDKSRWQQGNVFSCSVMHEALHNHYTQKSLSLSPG
notes: Control with the two light chains expressed as separate chains; also called Tandem-IgG control; control Tandem-IgG
B3 gave a Kd [5] of 2.32 pM, a koff [5] of 0.000149 s⁻¹ and a kon [5] of 6.39e+07 M⁻¹ s⁻¹.
